Assay results published in patent publication US6890716B1, “Recombinant cell line and screening method for identifying agents which regulate apoptosis and tumor suppression” (Howard Hughes Medical Institute, priority 1998, dated 2005).

Key:
[1] = target: temperature sensitive p53 (val135) mutant expressed in p53A cells (UniProt P02340); experiment: cell-based or functional assay
mdm2 in p53A cells = experiment: Up-regulation of endogenous Mdm2 by indirect immunofluorescence; assay type: cell-based, rat; settings: indirect immunofluorescence (FIG. 7)
Experimental: Cells were fixed in cold methanol prior to incubation with primary antibodies. Subsequent to several washes in PBS, cells were incubated with rhodamine-conjugated goat anti-mouse antibody or fluorescein-conjugated goat anti-rabbit antibody. Cells were then washed, mounted and analyzed by fluorescence microscopy using a Nikon FXA epifluorescence microscope.
The indicated amount of plasmid DNA was transfected by electroporation. After transfection, cells were incubated at 37.5° C. for 24 hours to recover, and were then shifted to 32° C. for 24 hours before analysis for viability by trypan blue staining and apoptotic morphology. […]
We next attempted to rescue p53A cells from apoptosis at the permissive temperature by ectopically expressing p300. Vector alone, wild-type p300 and a functional but truncated form of p300 with a deletion of E1A binding domain (Arany et al. 1994), were transiently transfected in p53A cells. p53-dependent apoptosis was examined at the permissive temperature 48 hours post-transfection. p53A cells transiently expressed the exogenous wild-type p300 and the E1A binding mutant form of p300, neither of which were detected in mock transfected cells. The up-regulation of mdm2 in p300 transfected cells was not detected by Western blot analysis above endogenous levels (FIG. 6) because the transfection efficiency was low in transient assays. […]

p53A cells = experiment: Apoptotic morphology of transfected cells by indirect immunofluorescence at the permissive temperature; assay type: cell-based, rat; settings: 24 μg plasmid DNA, permissive temperature (FIG. 9)
Experimental: Apoptotic morphology was assessed by scoring for cells that are positive by fluorescence microscopy and are rounded and non adherent.
In addition, we determined the percentage of cells with apoptotic morphology that were ectopically expressing wild-type p300 ectopically or the E1A-binding mutant of p300 following transient transfection with 24 μg of plasmid DNA. Apoptotic morphology was determined by counting cells that were rounded in shape and detaching from the dish. The percentage of cells with apoptotic morphology transiently expressing a control protein, a fragment of the lamin A protein (Rao et al. 1996), compared to p300 and mutant p300 transfected p53A cells at the permissive temperature was determined by indirect immunofluorescence.

[2] = tested on: GAL-4 luciferase reporter construct in HeLa cells; experiment: Transcriptional reporter assay (GAL-4 luciferase reporter); assay type: cell-based
Experimental: Transcriptional reporter assays were performed as described previously (Catron, et al., 1995). HeLa cells were plated onto 60 mm tissue culture dishes and grown to 50-75% confluency. The cells were then transfected with 2.5 μg of a GAL-4 luciferase reporter construct (kindly provided by Dr. C. Abate-Shen, Center for Advanced Biotechnology and Medicine, Piscataway, N.J.) along with 2.5 μg of both a pm1 vector (BtfS, BtfS-N552 or BtfS-C210) and a bcl-2 family gene (pCMV-E1B 19K, pcDNA3-Bcl-2, or pcDNA3-Flag-Bcl-xL). DNA concentrations were kept constant using appropriate empty vectors, either pm1 or pcDNA3. The cells were transfected using SuperFect (Qiagen, Valencia, Calif.) according to the manufacturer's specifications and harvested 24 hours post-transfection. Expression of mutant and wild-type BtfS proteins were verified by immunofluorescence using an antibody against the GAL-4 DNA-binding domain (Clontech, San Fransisco, Calif.). Luciferase activity was determined using the Luciferase Assay System (Promega Corp., Madison, Wis.) measured in a scintillation counter, and then normalized for protein concentrations measured by a Bradford assay. […]
To address these issues, BtfS was cloned into a mammalian expression vector (pm1) containing the GAL-4 DNA binding domain. Transcriptional activity was monitored using a reporter construct containing GAL-4 promoter sites. […]

| Molecule | percentage of apoptotic cells (morphology, indirect immunofluorescence) among p53A cells expressing the protein [1] [%] | transfected cells showing up-regulation of Mdm2 (mdm2 in p53A cells) [%] | percentage of expressing cells with apoptotic morphology (p53A cells) [%] | further results |
| --- | --- | --- | --- | --- |
| mutant mdm2 with deletion of the N-terminal p53-binding domain (pCOC-ΔXM / pCMVβ-ΔXM) (from UniProt P23804 102-489) | 30 | – | – | – |
| mutant p300: Functional but truncated p300 with deletion of the E1A binding domain (pCMVβp300Δ30) | – | 90 | 8 | – |
| wild-type mdm2 (pCOC-X2 / pCMVβ-X2) (from UniProt P23804 1-489) | 10 | – | – | – |
| wild-type p300: Transcriptional coactivator p300, HA-tagged, expressed from pCMVβp300 | – | 90 | 4 | – |
| pm1-BtfS: BtfS fused to the GAL-4 DNA binding domain in mammalian expression vector pm1 (protein) MKLLSSIEQACDICRLKKLKCSKEKPKCAKCLKNNWECRYSPKTKRSPLTRAHLTEVESRLERLEQLFLLIFPREDLDMILKMDSLQDIKALLTGLFVQDNVNKDAVTDRLASVETDMPLTLRQHRISATSSSEESSNKGQRQLTVSMGRANSRSHSSRSKSRSQSSSRSRSRSHSRKKRYRSRSRTYSRSRSRDRMYSRDYRRDYRNNRGMRRPYGYRGRGRGYYQGGGGRYHRGGYRPVWNRRHSRSPRRGRSRSRSPKRRSVSSRSRSRSRRSYRSSRSPRSSSSRSSSPYSKSPVSKRRGSQEKQTKKAEGEPQEESPLKSKSQEEPKDTFEHDPSESIDEFNKSSATSGDIWPGLSAYDNSPRSPHSPSPIATPPSQSSSCSDAPMLSTVHSAKNTPSQHSHSIQHSPERSGSGSVGNGSSRYSPSQNSPIHHIPSRRSPAKTIAPQNAPRDESRGRSSFYPDGGDQETAKTGKFLKRFTDEESRVFLLDRGNTRDKEASKEKGSEKGRAEGEWEDQEALDYFSDKESGKQKFNDSEGDDTEETEDYRQFRKSVLADQGKSFATASHRNTEEEGLKYKSKVSLKGNRESDGFREEKNYKLKETGYVVERPSTTKDKHKEEDKNSERITVKKETQSPEQVKSEKLKDLFDYSPPLHKNLDAREKSTFREESPLRIKMIASDSHRPEVKLKMAPVPLDDSNRPASLTKDRLLASTLVHSVKKEQEFRSIFDHIKLPQASKSTSESFIQHIVSLVHHVKEQYFKSAAMTLNERFTSYQKATEEHSTRQKSPEIHRRIDISPSTLRKHTRLAGEERVFKEENQKGDKKLRCDSADLRHDIDRRRKERSKERGDSKGSRESSGSRKQEKTPKDYKEYKSYKDDSKHKREQDHSRSSSSSASPSSPSSREEKESKKEREEEFKTHHEMKEYSGFAGVSRPRGTFFRIRGRGRARGVFAGTNTGPNNSNTTFQKRPKEEEWDPEYTPKSKKYFLHDDRDDGVDYWAKRGRGRGTFQRGRGRFNFKKSGSSPKWTHDKYQGDGIVEDEEETMENNEEKKDRRKEEKE | – | – | – | decrease in transcription compared to empty pm1 vector control ([2]; 24 hours post-transfection (FIG. 27)): ~10 fold |
| ΔC210: Deletion mutant of BtfS, amino acids 1-210, cloned into pm1 (protein, UniProt Q9NYF8 1-210, looked up, fragment, BtfS isoform, Deletion mutant of BtfS, amino acids 1-210, cloned into pm1) MGRSNSRSHSSRSKSRSQSSSRSRSRSHSRKKRYSSRSRSRTYSRSRSRDRMYSRDYRRDYRNNRGMRRPYGYRGRGRGYYQGGGGRYHRGGYRPVWNRRHSRSPRRGRSRSRSPKRRSVSSQRSRSRSRRSYRSSRSPRSSSSRSSSPYSKSPVSKRRGSQEKQTKKAEGEPQEESPLKSKSQEEPKDTFEHDPSESIDEFNKSSATSG | – | – | – | ability to repress transcription (in words) ([2]; pm1 GAL-4 DNA-binding domain fusions (FIG. 27)): sufficient for repression and nearly as potent as full-length BtfS |
